How the values were obtained:
[1] = molecular target: RPL6 (human) (UniProt Q02878); assay: co-IP with IgG control, lysate of N-FLAG B3GNT2 cells, mass spectrometry
[2] = molecular target: RPS20 (human) (UniProt P60866); assay: as above
[3] = molecular target: DDX3X (human) (UniProt O00571); assay: as above
[4] = molecular target: SPARC (human) (UniProt P09486); assay: as above
[5] = molecular target: XPOT (human) (UniProt O43592); assay: as above
[6] = molecular target: PSMA3 (human) (UniProt P25788); assay: as above
[7] = molecular target: DDX17 (human) (UniProt Q92841); assay: as above
[8] = molecular target: HNRNPH1 (human) (UniProt P31943); assay: as above
[9] = molecular target: JUP (human) (UniProt P14923); assay: as above
[10] = molecular target: SBSN (human) (UniProt Q6UWP8); assay: as above
[11] = molecular target: TPM2 (human) (UniProt P07951); assay: as above
[12] = molecular target: ARPC1B (human) (UniProt O15143); assay: as above
[13] = molecular target: TGM1 (human) (UniProt P22735); assay: as above
[14] = molecular target: XPO1 (human) (UniProt O14980); assay: as above
[15] = molecular target: HNRNPA2B1 (human) (UniProt P22626); assay: co-IP, IgG control, lysate of cells with C-FLAG B3GNT2; mass spectrometry
[16] = molecular target: RPL18 (human) (UniProt Q07020); assay: as above
[17] = molecular target: CSE1L (human) (UniProt P55060); assay: as above
[18] = molecular target: UBAP2L (human) (UniProt Q14157); assay: as above
[19] = molecular target: ARPC4 (human) (UniProt P59998); assay: as above
[20] = molecular target: GGCT (human) (UniProt O75223); assay: as above
[21] = molecular target: HNRNPK (human) (UniProt P61978); assay: as above
[22] = molecular target: HADHB (human) (UniProt P55084); assay: as above
[23] = molecular target: T1, MOV10 (human) (UniProt Q9HCE1); assay: as above
T1 sequence (looked up): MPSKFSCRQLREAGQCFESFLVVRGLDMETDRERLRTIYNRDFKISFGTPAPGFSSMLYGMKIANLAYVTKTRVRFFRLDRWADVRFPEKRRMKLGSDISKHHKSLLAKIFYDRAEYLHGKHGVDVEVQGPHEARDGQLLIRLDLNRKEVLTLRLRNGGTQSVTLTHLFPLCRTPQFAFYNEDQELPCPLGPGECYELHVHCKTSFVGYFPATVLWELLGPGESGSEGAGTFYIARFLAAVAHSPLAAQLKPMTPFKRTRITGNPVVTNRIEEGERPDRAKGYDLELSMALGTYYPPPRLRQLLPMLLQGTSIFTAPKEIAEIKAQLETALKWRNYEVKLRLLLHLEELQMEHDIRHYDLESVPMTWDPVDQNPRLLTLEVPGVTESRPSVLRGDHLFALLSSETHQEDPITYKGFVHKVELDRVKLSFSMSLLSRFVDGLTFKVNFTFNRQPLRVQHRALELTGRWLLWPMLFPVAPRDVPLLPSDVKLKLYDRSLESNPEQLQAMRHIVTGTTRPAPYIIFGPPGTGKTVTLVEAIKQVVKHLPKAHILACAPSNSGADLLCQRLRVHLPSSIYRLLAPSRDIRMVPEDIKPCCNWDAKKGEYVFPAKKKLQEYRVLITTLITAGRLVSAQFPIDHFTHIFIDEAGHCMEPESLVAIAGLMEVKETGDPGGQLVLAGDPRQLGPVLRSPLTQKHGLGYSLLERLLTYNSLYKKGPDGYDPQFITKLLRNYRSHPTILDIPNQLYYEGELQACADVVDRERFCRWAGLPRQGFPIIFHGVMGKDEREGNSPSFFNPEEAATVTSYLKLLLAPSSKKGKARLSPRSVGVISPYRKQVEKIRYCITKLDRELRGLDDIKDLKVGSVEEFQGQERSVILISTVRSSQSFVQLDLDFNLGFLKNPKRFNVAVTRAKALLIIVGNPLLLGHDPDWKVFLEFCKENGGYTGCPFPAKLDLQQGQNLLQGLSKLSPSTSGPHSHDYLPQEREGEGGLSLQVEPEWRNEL

[24] = molecular target: MYH11 (human) (UniProt P35749); assay: as above
[25] = molecular target: SPTAN1 (human) (UniProt Q13813); assay: as above
[26] = molecular target: RBM39 (human) (UniProt Q14498); assay: as above

**Q.** What does the source list for “IgG control (Millipore Sigma 12-371) (antibody)”?
**A.** co-IP/MS count, N-term IgG [1]: 5; co-IP/MS count, N-term IgG [2]: 4; co-IP/MS count, N-term IgG [3]: 19; co-IP/MS count, N-term IgG [4]: 0; co-IP/MS count, N-term IgG [5]: 0; co-IP/MS count, N-term IgG [6]: 0; co-IP/MS count, N-term IgG [7]: 23; co-IP/MS count, N-term IgG [8]: 11; co-IP/MS count, N-term IgG [9]: 39; co-IP/MS count, N-term IgG [10]: 25; co-IP/MS count, N-term IgG [11]: 0; co-IP/MS count, N-term IgG [12]: 2; co-IP/MS count, N-term IgG [13]: 9; co-IP/MS count, N-term IgG [14]: 0; co-IP mass spectrometry count [15]: 9; co-IP mass spectrometry count [16]: 7; co-IP mass spectrometry count [17]: 0; co-IP mass spectrometry count [18]: 15; co-IP mass spectrometry count [19]: 0; co-IP mass spectrometry count [20]: 0; co-IP mass spectrometry count [21]: 10; co-IP mass spectrometry count [22]: 0; co-IP mass spectrometry count [23]: 3; co-IP mass spectrometry count [24]: 5; co-IP mass spectrometry count [25]: 0; co-IP mass spectrometry count [26]: 3

— patent US20240261333A1, “NOVEL TARGETS FOR ENHANCING ANTI-TUMOR IMMUNITY” (THE BROAD INSTITUTE, INC., priority 2021, published 2024)
